Tests used:
[1] = molecular target: T1, yPolη truncated (catalytic core) (Saccharomyces cerevisiae, UniProt Q04049 1-513); experiment: EMSA; koff 0.008 ± 0.001 s-1 (DNA trap); 23°C, buffer A (composition not in material; without BSA for fluorescence); EMSA 10 nM DNA, 10-450 nM protein, 20 min, 4.5% native gel, 40 mM Tris in running bu
T1 sequence: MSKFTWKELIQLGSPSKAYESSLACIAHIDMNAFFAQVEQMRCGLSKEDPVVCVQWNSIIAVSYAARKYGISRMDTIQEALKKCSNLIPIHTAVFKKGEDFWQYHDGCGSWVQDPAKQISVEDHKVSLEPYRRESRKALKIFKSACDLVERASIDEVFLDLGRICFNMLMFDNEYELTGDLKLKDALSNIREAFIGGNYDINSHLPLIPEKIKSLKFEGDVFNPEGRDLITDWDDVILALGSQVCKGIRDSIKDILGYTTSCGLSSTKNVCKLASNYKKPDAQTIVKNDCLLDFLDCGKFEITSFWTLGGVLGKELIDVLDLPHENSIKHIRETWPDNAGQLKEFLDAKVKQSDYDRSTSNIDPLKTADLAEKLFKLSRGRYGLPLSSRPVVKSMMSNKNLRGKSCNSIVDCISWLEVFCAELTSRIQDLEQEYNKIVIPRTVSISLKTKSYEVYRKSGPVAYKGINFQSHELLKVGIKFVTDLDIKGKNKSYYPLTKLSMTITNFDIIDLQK

[2] = molecular target: T2, yPolη full-length (Saccharomyces cerevisiae, UniProt Q04049 1-632); experiment: EMSA; koff 0.0041 ± 0.0008 s-1 (DNA trap); 23°C, buffer A (composition not in material; without BSA for fluorescence); EMSA 10 nM DNA, 10-450 nM protein, 20 min, 4.5% native gel, 40 mM Tris in running bu
T2 sequence: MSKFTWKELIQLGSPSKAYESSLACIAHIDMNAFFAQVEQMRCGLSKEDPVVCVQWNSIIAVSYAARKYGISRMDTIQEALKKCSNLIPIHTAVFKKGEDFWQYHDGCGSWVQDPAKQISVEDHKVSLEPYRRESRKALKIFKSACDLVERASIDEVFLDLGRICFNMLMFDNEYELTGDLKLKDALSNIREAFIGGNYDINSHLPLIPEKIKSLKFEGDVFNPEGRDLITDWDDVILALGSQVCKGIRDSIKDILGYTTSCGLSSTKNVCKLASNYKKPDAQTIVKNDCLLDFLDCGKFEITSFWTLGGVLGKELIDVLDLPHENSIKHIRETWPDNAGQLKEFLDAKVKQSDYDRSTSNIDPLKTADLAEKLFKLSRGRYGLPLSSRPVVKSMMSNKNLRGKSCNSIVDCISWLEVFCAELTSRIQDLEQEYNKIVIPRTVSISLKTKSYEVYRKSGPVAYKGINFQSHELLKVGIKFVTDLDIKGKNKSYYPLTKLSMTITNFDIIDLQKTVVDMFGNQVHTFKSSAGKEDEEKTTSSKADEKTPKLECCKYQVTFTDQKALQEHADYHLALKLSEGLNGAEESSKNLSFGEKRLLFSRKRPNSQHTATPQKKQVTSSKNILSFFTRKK

B1: D-1 21/41-mer (dsDNA)
DNA 1: CGCAGCCGTCCAACCAACTCA
DNA 2: GGACGGCATTGGATCGACGATGAGTTGGTTGGACGGCTGCG
Kd [1]: 34 ± 3 nM
Kd [2]: 16 ± 1 nM

Source: PMC2925389
